Changes are numbered by the printed parent chain.
B1: XENP14701 (bispecific antibody)
heavy: EVQLVESGGGLVQPGGSLRLSCAASGFDFSRSWMNWVRQAPGKGLEWVSEINPDSSTINYATSVKGRFTISRDNSKNTLYLQMNSLRAEDTAVYYCARYGNWFPYWGQGTLVTVSSASTKGPSVFPLAPSSKSTSGGTAALGCLVKDYFPEPVTVSWNSGALTSGVHTFPAVLQSSGLYSLSSVVTVPSSSLGTQTYICNVNHKPSDTKVDKKVEPKSCDKTHTCPPCPAPPVAGPSVFLFPPKPKDTLMISRTPEVTCVVVDVKHEDPEVKFNWYVDGVEVHNAKTKPREEEYNSTYRVVSVLTVLHQDWLNGKEYKCKVSNKALPAPIEKTISKAKGQPREPQVYTLPPSREEMTKNQVSLTCDVSGFYPSDIAVEWESDGQPENNYKTTPPVLDSDGSFFLYSKLTVDKSRWEQGDVFSCSVMHEALHNHYTQKSLSLSPGK
scFv-Fc: not shown
light: DIVMTQSPSSLSASVGDRVTITCRASQNVDTNVAWYQQKPGQSPKALIYSASYRYSGVPDRFTGSGSGTDFTLTISSLQPEDFATYFCQQYDSYPLTFGGGTKLEIKRTVAAPSVFIFPPSDEQLKSGTASVVCLLNNFYPREAKVQWKVDNALQSGNSQESVTEQDSKDSTYSLSSTLTLSKADYEKHKVYACEVTHQGLSSPVTKSFNRGEC
notes: anti-CD38 x anti-CD3; copies: 1 + 1 + 1
B2: XmAb14702 (bispecific antibody)
heavy: B1 heavy with D28T, R31Y, D54Q
scFv-Fc: not shown
light: B1 light with N32W
B3: XENP13243 (bispecific antibody)
heavy: B1 heavy
scFv-Fc: not shown
light: B1 light
notes: as for B1
B4: XENP14703 (bispecific antibody)
heavy: B1 heavy
scFv-Fc: not shown
light: B1 light with Y55K
notes: anti-CD38 x anti-CD3
B5: XENP14388 (bispecific antibody)
HC 1 (Fab-Fc): QVQLVQSGAEVKKPGASVKVSCKASGYTFTSYNMHWVRQAPGQRLEWMGAIYPGNGATSYSQKFQGRVTITADTSASTAYMELSSLRSEDTAVYYCARSYYMGGDWYFDVWGAGTLVTVSSASTKGPSVFPLAPSSKSTSGGTAALGCLVKDYFPEPVTVSWNSGALTSGVHTFPAVLQSSGLYSLSSVVTVPSSSLGTQTYICNVNHKPSDTKVDKKVEPKSCDKTHTCPPCPAPPVAGPSVFLFPPKPKDTLMISRTPEVTCVVVDVKHEDPEVKFNWYVDGVEVHNAKTKPREEEYNSTYRVVSVLTVLHQDWLNGKEYKCKVSNKALPAPIEKTISKAKGQPREPQVYTLPPSREEMTKNQVSLTCDVSGFYPSDIAVEWESDGQPENNYKTTPPVLDSDGSFFLYSKLTVDKSRWEQGDVFSCSVMHEALHNHYTQKSLSLSPGK
HC 2 (scFv-Fc): not shown
light: QIVLTQSPSSLSASVGDRVTITCRASWSVSYIHWFQQKPGKSPKPLIYATSNLASGVPVRFSGSGSGTDYTLTISSLQPEDFATYYCQQWTHNPPTFGGGTKVEIKRTVAAPSVFIFPPSDEQLKSGTASVVCLLNNFYPREAKVQWKVDNALQSGNSQESVTEQDSKDSTYSLSSTLTLSKADYEKHKVYACEVTHQGLSSPVTKSFNRGEC
notes: anti-CD3 scFv H1.31_L1.47; also called Anti-CD20 (C2B8_H1.202_L1.113) x Anti-CD3 (H1.31_L1.47) Fab-scFv-Fc; CD3low
B6: XENP14390 (bispecific antibody)
HC 1 (Fab-Fc): B5 HC 1 (Fab-Fc)
HC 2 (scFv-Fc): not shown
light: B5 light
notes: anti-CD3 scFv H1.33_L1.47; also called Anti-CD20 (C2B8_H1.202_L1.113) x Anti-CD3 (H1.33_L1.47) Fab-scFv-Fc; CD3med
B7: XENP16374 (bispecific antibody)
HC 1 (Fab-Fc): B5 HC 1 (Fab-Fc)
HC 2 (scFv-Fc): not shown
light: B5 light
notes: anti-CD3 scFv H1.106_L1.47; also called Anti-CD20 (C2B8_H1.202_L1.113) x Anti-CD3 (H1.106_L1.47) Fab-scFv-Fc
B8: XENP16375 (bispecific antibody)
HC 1 (Fab-Fc): B5 HC 1 (Fab-Fc)
HC 2 (scFv-Fc): not shown
light: B5 light
notes: anti-CD3 scFv H1.107_L1.47; also called Anti-CD20 (C2B8_H1.202_L1.113) x Anti-CD3 (H1.107_L1.47) Fab-scFv-Fc
B9: XENP16376 (bispecific antibody)
HC 1 (Fab-Fc): B5 HC 1 (Fab-Fc)
HC 2 (scFv-Fc): not shown
light: B5 light
notes: anti-CD3 scFv H1.108_L1.47; also called Anti-CD20 (C2B8_H1.202_L1.113) x Anti-CD3 (H1.108_L1.47) Fab-scFv-Fc
B10: XENP16373 (bispecific antibody)
HC 1 (Fab-Fc): B5 HC 1 (Fab-Fc)
HC 2 (scFv-Fc): EVQLVESGGGLVQPGGSLRLSCAASGFTFSTYAMNWVRQAPGKGLEWVGRIRSKYNNYATYYADSVKGRFTISRDDSKNTLYLQMNSLRAEDTAVYYCVRHGNFGDQYVSWFDYWGQGTLVTVSSGKPGSGKPGSGKPGSGKPGSQAVVTQEPSLTVSPGGTVTLTCGSSTGAVTTSNYANWVQQKPGKSPRGLIGGTNKRAPGVPARFSGSLLGGKAALTISGAQPEDEADYYCALWYSNHWVFGGGTKLTVLEPKSSDKTHTCPPCPAPPVAGPSVFLFPPKPKDTLMISRTPEVTCVVVDVKHEDPEVKFNWYVDGVEVHNAKTKPREEQYNSTYRVVSVLTVLHQDWLNGKEYKCKVSNKALPAPIEKTISKAKGQPREPQVYTLPPSREQMTKNQVKLTCLVKGFYPSDIAVEWESNGQPENNYKTTPPVLDSDGSFFLYSKLTVDKSRWQQGNVFSCSVMHEALHNHYTQKSLSLSPGK
light: B5 light
notes: anti-CD3 scFv H1.105_L1.47; also called Anti-CD20 (C2B8_H1.202_L1.113) x Anti-CD3 (H1.105_L1.47) Fab-scFv-Fc
B11: 13928B (bispecific antibody)
Heavy Chain 1 (Anti-CD123 Fab-Fc (7G3_H0)): EVQLQQSGPELVKPGASVKMSCKASGYTFTDYYMKWVKQSHGKSLEWIGDIIPSNGATFYNQKFKGKATLTVDRSSSTAYMHLNSLTSEDSAVYYCTRSHLLRASWFAYWGQGTLVTVSAASTKGPSVFPLAPSSKSTSGGTAALGCLVKDYFPEPVTVSWNSGALTSGVHTFPAVLQSSGLYSLSSVVTVPSSSLGTQTYICNVNHKPSDTKVDKKVEPKSCDKTHTCPPCPAPPVAGPSVFLFPPKPKDTLMISRTPEVTCVVVDVKHEDPEVKFNWYVDGVEVHNAKTKPREEEYNSTYRVVSVLTVLHQDWLNGKEYKCKVSNKALPAPIEKTISKAKGQPREPQVYTLPPSREEMTKNQVSLTCDVSGFYPSDIAVEWESDGQPENNYKTTPPVLDSDGSFFLYSKLTVDKSRWEQGDVFSCSVMHEALHNHYTQKSLSLSPGK
Heavy Chain 2 (Anti-CD3 scFv-Fc (aCD3_H1.30_L1.47)): not shown
Light Chain (Anti-CD123 LC (7G3_L0)): DFVMTQSPSSLTVTAGEKVTMSCKSSQSLLNSGNQKNYLTWYLQKPGQPPKLLIYWASTRESGVPDRFTGSGSGTDFTLTISSVQAEDLAVYYCQNDYSYPYTFGGGTKLEIKRTVAAPSVFIFPPSDEQLKSGTASVVCLLNNFYPREAKVQWKVDNALQSGNSQESVTEQDSKDSTYSLSSTLTLSKADYEKHKVYACEVTHQGLSSPVTKSFNRGEC
B12: XENP14393 (bispecific antibody)
HC 1 (Fab-Fc): B5 HC 1 (Fab-Fc)
HC 2 (scFv-Fc): not shown
light: B5 light
notes: anti-CD3 scFv H1.90_L1.47; also called Anti-CD20 (C2B8_H1.202_L1.113) x Anti-CD3 (H1.90_L1.47) Fab-scFv-Fc

Each binder was assayed against T1, CD3 (Homo sapiens (Human), UniProt P07766 23-126; P04234 22-105) (assay: Biacore).
T1 construct: not shown: The Fc carrier of the Sino Biological CD3 delta-epsilon-Fc heterodimer; copies: 1 + 1
T1 sequence (P07766 23-126 limits assumed, chain 1 of 2): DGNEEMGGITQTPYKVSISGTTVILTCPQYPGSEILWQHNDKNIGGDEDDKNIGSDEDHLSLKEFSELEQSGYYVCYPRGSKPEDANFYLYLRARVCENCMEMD
T1 sequence (P04234 22-105 limits assumed, chain 2 of 2): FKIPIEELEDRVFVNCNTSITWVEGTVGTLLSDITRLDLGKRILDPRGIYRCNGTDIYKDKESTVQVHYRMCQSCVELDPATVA

Row | Fold Decrease in CD3 binding from H1.30_L1.47 [fold] | Binder
1 | 330 | B1
2 | 330 | B2
3 | 1 | B3
4 | 330 | B4

Each binder was assayed against T2, human CD3 (human, UniProt P07766 23-126; P04234 22-105) (assay: SPR; human CD3-Fc (printed 'CD388-Fc', Sino Biological) covalently bound to the chip; test article passed over at 31.25, 125, 500 and 2000 nM).
T2 construct: The legend says only human CD3
T2 sequence (P07766 23-126, chain 1 of 2): as the sequence (P07766 23-126 limits assumed, chain 1 of 2) above
T2 sequence (P04234 22-105, chain 2 of 2): as the sequence (P04234 22-105 limits assumed, chain 2 of 2) above

Row | Kd [µM] | Binder
5 | 1.2 | B5
6 | 0.22 | B6
7 | 1.3 | B7
8 | 1 | B8
9 | 1.1 | B9
10 | 4 | B10

Each binder was assayed against CD123 on KG-1a cells (human, UniProt P26951 19-378) (assay: cell-based or functional assay).

Row | RTCC % of KG-1a cells: EC50 (read off the curve) [ng/mL] | Binder
11 | ~0.8 | B11

These binders were tested against T3, cyno CD3 (cynomolgus monkey, UniProt Q95LI5 22-117; Q95LI8 22-105) (assay: SPR; cynomolgus monkey CD3-Fc (printed 'CD388-Fc', Sino Biological) covalently bound to the chip; test article passed over at 3.125, 12.5, 50 and 200 nM).
T3 construct: The legend says only cyno CD3; also called cynomolgus monkey CD3
T3 sequence (Q95LI5 22-117, form in doubt, chain 1 of 2): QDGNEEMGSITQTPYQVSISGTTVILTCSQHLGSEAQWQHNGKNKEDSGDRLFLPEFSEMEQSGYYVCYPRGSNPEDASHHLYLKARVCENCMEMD
T3 sequence (Q95LI8 22-105, form in doubt, chain 2 of 2): as the sequence (P04234 22-105 limits assumed, chain 2 of 2) above, with I5V, N15K, I20V, S32T, D33N, I34N, T64A, S74N, V83L counted along it

Row | Kd [µM] | Binder
12 | ~1 | B5
13 | 0.12 | B12
14 | 0.1 | B6

These binders were tested against T2, human CD3 (assay: SPR; human CD3-Fc (printed 'CD388-Fc', Sino Biological) covalently bound to the chip; test article passed over at 3.125, 12.5, 50 and 200 nM).

Row | Kd [µM] | Binder
15 | ~2 | B5
16 | 0.12 | B12
17 | 0.11 | B6

These binders were tested against T1, CD3 (assay: Biacore; column head 'KD (nM)*', anti-CD3 scFv-Fc H1.31_L1.47).

Row | Kd [µM] | Binder
18 | 1.64 | B1
19 | 1.64 | B2
20 | 1.64 | B4

The binders below were run against T3, cyno CD3 (assay: SPR; cynomolgus monkey CD3-Fc (printed 'CD388-Fc', Sino Biological) covalently bound to the chip; test article passed over at 31.25, 125, 500 and 2000 nM).

Row | Kd [µM] | Binder
21 | 1.2 | B5
22 | 0.16 | B6
23 | 1.1 | B7
24 | 0.88 | B8
25 | 0.86 | B9
26 | 0.42 | B10

The binders below were run against T1, CD3 (assay: Biacore; column head 'KD (nM)*', anti-CD3 scFv-Fc H1.30_L1.47).

Row | Kd [µM] | Binder
27 | 0.00491 | B3

Reference: patent US20250109215A1 (Xencor, published 2025)
